Test results as given in US12366576B2, “Compositions, assays, and methods for direct modulation of fatty acid metabolism” (Dana-Farber Cancer Institute, Inc., priority 2016, dated 2025).
Bridge positions count the residues as written; N and C are the ends. Square brackets hold non-standard residues; d marks the D form. Ends that are not written are not given here. Peptide text beside a SMILES is read from it. S5 = C=CCCC[C@](C)(N)C(=O)O

Molecular target: T1, native VLCAD (Mus musculus, UniProt P50544)
T1 construct: As for native VLCAD from MEF lysates; endogenous in cells; host or cells: SV-40-transformed wild-type mouse embryonic fibroblasts (lysate)
T1 sequence (P50544 42-656): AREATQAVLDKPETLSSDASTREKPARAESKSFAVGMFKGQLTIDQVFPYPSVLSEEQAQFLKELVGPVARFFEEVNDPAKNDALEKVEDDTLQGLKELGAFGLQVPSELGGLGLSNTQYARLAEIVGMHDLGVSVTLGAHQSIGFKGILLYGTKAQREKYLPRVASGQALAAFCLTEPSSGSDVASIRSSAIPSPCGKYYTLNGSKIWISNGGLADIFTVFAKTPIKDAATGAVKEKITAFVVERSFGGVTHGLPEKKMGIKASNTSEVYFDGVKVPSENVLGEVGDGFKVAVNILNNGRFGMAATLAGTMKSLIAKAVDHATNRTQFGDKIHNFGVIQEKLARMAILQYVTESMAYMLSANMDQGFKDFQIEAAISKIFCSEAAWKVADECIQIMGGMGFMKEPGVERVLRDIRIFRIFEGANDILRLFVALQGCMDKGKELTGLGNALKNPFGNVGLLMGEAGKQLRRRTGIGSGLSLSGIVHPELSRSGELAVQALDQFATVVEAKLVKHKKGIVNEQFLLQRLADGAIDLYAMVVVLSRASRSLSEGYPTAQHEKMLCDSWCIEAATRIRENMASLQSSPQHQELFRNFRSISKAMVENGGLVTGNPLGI
Assay: Biotinylated SAHB pulldown from MEF lysates, anti-VLCAD Western analysis
Assay type: binding
Settings: for summary of binding properties: binding to VLCAD: pull-downs and ITC; for best overall binders to VLCAD based on pull-downs and ITC: summary of binding properties
Text: To validate the MS result, the pulldowns were repeated and eluates run on a gel for anti-VLCAD Western blot analysis. […] All peptides faithfully recapitulated native BH3-binding propensities for endogenous MCL-1 protein (FIG. 8). The eluates were then probed for the other members of the acyl-CoA dehydrogenase family that manifest shorter fatty acid substrate specificities. MCL-1 SAHBD was able to pull down VLCAD, but not MCAD or SCAD (FIG. 9). Because the traditional MCL-1 staple location differs from that of the BIM, BID, and BAD SAHBs, it was important to confirm that the observed VLCAD binding specificity was due to BH3 sequence selectivity, not staple position. A BIM SAHB with the traditional MCL-1 staple (BIM SAHBF), and a MCL-1 stapled peptide with the traditional BIM staple (MCL-1 SAHBA), were generated. […] To confirm that the selective interaction between MCL-1 SAHBD and VLCAD is direct, recombinant VLCAD was generated and purified by size exclusion chromatography (FIGS. 11 and 12).
The binding determinants for the MCL-1 BH3/VLCAD interaction were investigated by generating a series of biotinylated MCL-1 SAHBD alanine point mutants (FIG. 18A) and performing streptavidin pull-downs from MEF lysates, followed by VLCAD and MCL-1 western analysis of the resulting eluates. […] Native alanines and residues not mutated are colored white. The dotted semicircles highlight the distinctive MCL-1 BH3 binding interfaces for VLCAD versus MCL-1 engagement, as defined by the differential sensitivities to alanine mutagenesis.
Wild-type MEFs were trypsinized, washed once with cold PBS, and lysed on ice with NP-40 lysis buffer (50 mM Tris, pH 7.4, 150 mM NaCl, 0.5% (v/v) NP-40, complete protease inhibitor pellet (Roche)) using 1 ml of lysis buffer for every 10 million cells lysed. Cellular debris was pelleted at 14,000 g for 10 min at 4° C., and the supernatant was quantified using the BCA Protein Assay Kit (Thermo Fisher Scientific). 2 mg of lysate per pulldown were then exposed to 50 μL of pre-equilibrated High Capacity Streptavidin Agarose beads (Thermo Fisher Scientific). The pre-cleared lysates were then incubated with 15 nmol biotinylated SAHBs (or vehicle, 1.5% (v/v) DMSO) overnight at 4° C., followed by addition of 50 μL of pre-equilibrated High Capacity Streptavidin Agarose beads for 2 hours at 4° C. The beads were then pelleted and washed with NP-40 lysis buffer three times before eluting the protein sample from the beads by heating at 70° C. for 10 min in SDS loading buffer. Samples were then subjected to electrophoresis and either Western analysis or Coomassie stain (SimplyBlue Safe Stain, Thermo Fisher Scientific). The antibodies used for Western analysis were the following: MCL-1 (Rockland 600-401-394; 1:1000 in 3% BSA), VLCAD (Thermo Fisher Scientific PA5-29959; 1:1000 in 1% milk+0.1% Tween-20), MCAD (Thermo Fisher Scientific PA5-27201; 1:1000 in 3% BSA), and SCAD (Abcam ab154823; 1:1000 in 3% BSA). Coomassie stained gels were then processed for proteomics analysis (see below). Biotinylated SAHB pulldowns of recombinant protein were performed as above incubating 5 nmol of SAHB with 10 pmol of rVLCAD in 500 μL total volume. Densitometry analyses were performed using ImageJ software.

summary of binding properties: binding to VLCAD | best overall binders to VLCAD based on pull-downs and ITC | effect of alanine mutation on biotinylated MCL-1 SAHBD interaction with VLCAD (pull-downs from MEF lysates) | Molecule | pull down of VLCAD from cellular lysates (wild-type MEF lysates, 15 nmol biotinylated SAHB)
Does not bind | – | – | F228A: biotinylated MCL-1 SAHBD alanine point mutant F228A (RKALETLRRVGDGV[S5]RNH[S5]TAA; staple 15-19; also: biotinylated, place not given here) | –
Binds | Best overall binders to VLCAD | – | D218A: biotinylated MCL-1 SAHBD alanine point mutant D218A (RKALETLRRVGAGV[S5]RNH[S5]TAF; staple 15-19; also: biotinylated, place not given here) | –
Does not bind | – | disrupted | L213A: biotinylated MCL-1 SAHBD alanine point mutant L213A (RKALETARRVGDGV[S5]RNH[S5]TAF; staple 15-19; also: biotinylated, place not given here) | –
weakly or not | – | – | R215A: biotinylated MCL-1 SAHBD alanine point mutant R215A (RKALETLRAVGDGV[S5]RNH[S5]TAF; staple 15-19; also: biotinylated, place not given here) | –
Binds | Best overall binders to VLCAD | – | CC(=O)N[C@@H](CCCNC(=N)N)C(=O)N[C@@H](CCCCN)C(=O)N[C@@H](C)C(=O)N[C@@H](CC(C)C)C(=O)N[C@@H](CCC(=O)O)C(=O)N[C@H](C(=O)N[C@@H](CC(C)C)C(=O)N[C@@H](CCCNC(=N)N)C(=O)N[C@@H](CCCNC(=N)N)C(=O)N[C@H](C(=O)NCC(=O)N[C@@H](CC(=O)O)C(=O)NCC(=O)N[C@@H](C)C(=O)N[C@@]1(C)CCCC=CCCC[C@@](C)(C(=O)N[C@H](C(=O)N[C@@H](C)C(=O)N[C@@H](Cc2ccccc2)C(N)=O)[C@@H](C)O)NC(=O)[C@H](Cc2c[nH]cn2)NC(=O)[C@H](CC(N)=O)NC(=O)[C@H](CCCNC(=N)N)NC1=O)C(C)C)[C@@H](C)O [V220A] (Ac-RKALETLRRVGDGA[S5]RNH[S5]TAF-NH2; staple 15-19; N-terminus and C-terminus assumed) | –
Does not bind | – | – | R214A: biotinylated MCL-1 SAHBD alanine point mutant R214A (RKALETLARVGDGV[S5]RNH[S5]TAF; staple 15-19; also: biotinylated, place not given here) | –
Does not bind | – | – | R207A: biotinylated MCL-1 SAHBD alanine point mutant R207A (AKALETLRRVGDGV[S5]RNH[S5]TAF; staple 15-19; also: biotinylated, place not given here) | –

Molecule | summary of binding properties: binding to VLCAD | best overall binders to VLCAD based on pull-downs and ITC | effect of alanine mutation on biotinylated MCL-1 SAHBD interaction with VLCAD (pull-downs from MEF lysates) | pull down of VLCAD from cellular lysates (wild-type MEF lysates, 15 nmol biotinylated SAHB)
MCL-1 SAHBD: hydrocarbon-stapled peptide mimicking the MCL-1 BH3 domain (Stabilized Alpha-Helix of BCL-2 Domain), SEQ ID NO:19 (RKALETLRRVGDGV[S5]RNH[S5]TAF; staple 15-19) | Binds | – | – | VLCAD was detected
